{"source": "the DeepSol protein solubility set"}
{"experiment": "soluble on expression in E. coli; label from the status in PepcDB or PDB records"}
{"sequence": "MGSDKIHHHHHHMRYHIALVGRRNSGKSSLLNMLAGQQISIVSDIKGTTTDAVAKAYELQPLGPVTFYDTAGIDDEGTLGAMRVSATRRVLFRSDMALLVVDEQGLCPSDMALIDEIRQLQMPILMVFNKADICTPKAEDIAFCQNQSLPFIVVSAATGLAGKQLKQLMVELAPAEYKQEPLLAGDLYQAGDVILCVVPIDMAAPKGRLILPQVQILREALDRSAIAMVVKETELAQALSVVTPKLVISDAQAIKQVAAIVPDAVPLTTFSTLFARFKGDLAALATGADALDTLQDGDKVLISEACSHNVQEDDIGRVKLPRWINSYTGKQLEFVVTSGHDFPNDLEQYALVIHCGACMFNRNEMLRRIRECQRRQVPITNYGVAISKLQGVLPRVLTPFNRNPQQ", "soluble on expression in E. coli": "not soluble"}
{"sequence": "MASSSNFMAPPPKMNKTSSMNSLRKTLGLKKPNNGELSMVPSRPIVSPTLSSPLQGSGAAPLEKDYHSLEYRLTHGHWRIFNSKSVFGNKDASVLVFDKKSNVKAPPKLGKSKTYSMFDLIKYETQQLMGLIHPRILHMEHSLEETKDYISFATEQIFGNLENVVTDESLDRLEIKLGVLQIIDGMSYLHNSAKMLHGNLTPDAIYVTATKTWKIGGFSFAVNAKEPNCYPCYPWTKKLPPCLQPDLDFLAPENLAPGQTTVTSAADVFSLGVLICWIYAGGKRLIDAKSNLETYHIVVGQLDAALQCISNELGPNLKDSMAKVLSLDVEVRPTVQLLSLIKHFDDPCLSALRQLDDIAQVFDPSQKSHFLSQTLNVAIPHISESVWFNRVLPRFNEQLLELPEMYYPITKPLFHILEHCESHNIHKMKPWIRKLMEAAPHNKLLRAFILENMSALFRRLSDEFVEDKCLDVIILSLKSEDTSLQSSAVRGLPHVAEYLPVGFITKKLIPAIMGLPPFLHENVPRQLDLLAALAALSDRCDVSSIVHLFGCISLCNSSHPVIVHAKSRIVQRLVMRDPNRLKDSQLLSIHLLNPLVNGLACKDLSTFSCAHFDDVLSSVRILLDVLEQRRYEMEDRQEHKQSNHHLGLNRLGNRRVSMSSTNLPRVMISAARPSFSSDSRKMSFLSADGRLEDRGSRRESRDSRGSLESDMSIRIGNGSDISDDSCFSSHSAKGRRQSWLDGYGHSVSLEQNTNGFLETTSRNLGDRNSMNFKQRNARASERRARTRSPNAELDPQREQPPARPNSFTNLGHNIVLTYRNLLYKDHT", "soluble on expression in E. coli": "not soluble"}
{"sequence": "MSLQWECWPSLPCWRCFAASGRITLSIKRFTQNSRRHDMKITKINAIPLSYRLPEGKTVTMGVGSTIKRDAIIIRVETSEGITGYGEAHPGRSPGAITSLIHNTIAPMLIGMKATDCVGAWQRVHRMQLSSHGLGAGAALAISGIDMALWDIRGKAANMPLYELLGGSKRRIPAYAGGIALGYQPKESLAEEAQEYIARGYKALKLRIGDAARVDIERVRHVRKVLGDEVDILTDANTAYTMADARRVLPVLAEIQAGWLEEPFACNDFASYREVAKITPLVPIAAGENHYTRFEFGQMLDAGAVQVWQPDLSKCGGITEGIRIAAMASAYRIPINAHSSATGLNHAATIHFLAATENAGYFEACVSKFNPFRDMFGTSFEIGADGCVEPPDAPGLGIEVDESIFEKYPAVDGPGYVVKFEGHHHHHH", "soluble on expression in E. coli": "soluble"}
{"sequence": "MGSDKIHHHHHHMHASVKFRIAEIINSTMPSAEWRLLKQIGVNEVVGTLPRDPSDWRGDQPDLPWDYAPLSSLKRRLSEYGLTLSAIEDNPPMEKIKYGVKGKEDELENVLRLIENMGRLKIGVWCYNWMAGQGWMRSRISIPDRGGAEVTGFSLSDIEEYPPPKMGKIDAETLWKNLAWFLDNVIPVAEDSGVKIAMHPDDPPLEEIRGVSRIMNNVKAFDKLIEMKRSEYNTITLCQGNFTLMTEDLPSAIRHFVRKKAVSFVHFRDVKGKKDNFIESFIDDGKTDTASCMSAYIEEGFDGIMRTDHTPTLYGDTYKVPGYSILGRLHAIGYIQGLIDGVSMV", "soluble on expression in E. coli": "not soluble"}
{"sequence": "MSLDQFDCKVSATGGWDCSPLQNANANLPPRPAHTATSVSTAAAGSSVSGSGGETVEAEPTQRLVTESGGRALKSRSADYSHLDWIPREKLTAAQLAEIGPYCGGSYIEPVRPGMDDGAPSDESPTYVSAKASRYEQEKQIATLAGDVVLRQGSMQVEGDEANLHQLENRGELVGNVKLRDKGMLVVGDHAQVQLDNGEAQVDNAEYVIHKAHARGSALYAKRSENAIIMLKDGTYTRCEPSSNAWTLKGNNVKLNPATGFGTATNATLRVKDFPVFYTPYIYFPIDDRRQSGFLPPSFSSTSDTGFTLVTPYYFNLAPNYDATLYPRYMAKRGMMLEGEFRYLTHSSEGIVNAAYLNDKDDHREGFPDYSKDRWLYGLKNTTGLDSRWLAEVDYTRISDPYYFQDLDTDLGVGSTTYVNQRGTLTYRGDTFTGRLNAQAYQLATTTDVTPYDRLPQITFDGFLPYNPGGMQFTYGTEFVRFDRDLDENIYFNDDGSIRGKRPDASLQGLARATGDRMHLEPGMSLPMTRSWGYVTPTLKYLYTKYDLDLDSQGKTDLNKRDESFDSNQDRSLPLVKVDSGLYFDRDTTFAGTPFRQTLEPRAMYLYVPYKDQDSLPVFDTSEPSFSYDSLWRENRFTGKDRIGDANQLSLGVTSRFIEENGFERASISAGQIYYFRDRRVQLPGLTEKDLKRLNLDPSGLDNDSWRSPYAFAGQYRFNRDWRINSDFNWNPNTSRTESGSAIFHYQPEVDPGKVVNVGYRYRADARRFDSSRGTFRYGNENDIIKQHDFSVIWPLVPQWSVLARWQYDYNKNRTLEAFGGFEYDSCCWKLRLINRYWLDVDDDAFLVQSEKADRGIFLQIVLKGLGGIVGNKTEMFLDKGIQGYRQREEGHHHHHH", "soluble on expression in E. coli": "not soluble"}
{"sequence": "MITFKPTRNIDLIEAVGNHPDIIAGSNNGDGYDYKPECRYFEVNVHGQFGGIVYYQEIQPLTLDCHAMYLPEIRGFSKEIGLAFWRYILTNTTVQCVTSFAARKFRHGQMYCAMIGLKRVGTIKKYFKGVDDVTFYSATREELIDFLNHGR", "soluble on expression in E. coli": "not soluble"}
{"sequence": "MGSDKIHHHHHHMTENSRKTATELFEFLDGLGISHTTKQHEPVFTVAESQSLRDLIPGGHTKNLFVKDKKDQYFVLTVEENAVVDLKSVHKTIGAASRVSFGRPEKMLEYLGVVPGSVTVFGAINDTARQVTFVLDSDLLENELVNGHPLSNDQTTTIASKDLIRFLEATGHAPLVLKVSE", "soluble on expression in E. coli": "soluble"}
{"sequence": "MSLAAHYDGLEKRTGAPYYGKKAEKVCNCAECLVFRRDVETGRLRLSNAYFCKVRLCSMCAWRRSLKIASHNKLIVEEANREYKPSWIFLTLTVRNVDGDDLKQTITDMMKAWNRLFGYKVVKTSVLGYFRALEITKNHEQNTYHPHFHVLIPVKRSYFTGKRYIKQAEWTSLWKRAMKLDYTPIVHVQRVKGKKGIDAEGIEKEVRKEMEEQKAILEISKYPVKDTDVIRGNEVTEENLDTVYYLDDALNARRLIGYGGILKEIHKELNLTDAEDGDLVRIEEDDDAVANETFEVMARWHVGIKNYIIQEGHHHHHH", "soluble on expression in E. coli": "soluble"}
{"sequence": "MGSDKIHHHHHHMAKLDDATLAQLFTEARSHNGWNPEPLPESVLRELYALTKFGPTAANGSPARFYFVTSAEAKERLAKLSSGSNGPKIMQAPCTVIIGYDLDFPQTLPKLFPHAPGAKDWFNDPVAKEWCALRNSSLQGGYFMIGARALGLDVGPMSGFDNAAVDAEFFAGTNIKSNFIVSIGHGTDEGLFPRNPRLDFDEAAKIL", "soluble on expression in E. coli": "not soluble"}
{"sequence": "MGSDKIHHHHHHMEMRFFVLGAGSWGTVFAQMLHENGEEVILWARRKEIVDLINVSHTSPYVEESKITVRATNDLEEIKKEDILVIAIPVQYIREHLLRLPVKPSMVLNLSKGIEIKTGKRVSEIVEEILGCPYAVLSGPSHAEEVAKKLPTAVTLAGENSKELQKRISTEYFRVYTCEDVVGVEIAGALKNVIAIAAGILDGFGGWDNAKAALETRGIYEIARFGMFFGADQKTFMGLAGIGDLMVTCNSRYSRNRRFGELIARGFNPLKLLESSNQVVEGAFTVKAVMKIAKENKIDMPISEEVYRVVYEGKPPLQSMRDLMRRSLKDEFWAS", "soluble on expression in E. coli": "soluble"}
{"sequence": "MKMATDDHQPPMVRGRRIKLKYAHAGGYNPPIVVIHGNMVRELPDSYKRYLMNYFRKSLEIMGTPIRINFQNSENPFENRANKLTLSQERKRKRMMSVVKNRKK", "soluble on expression in E. coli": "not soluble"}
{"sequence": "MAHHHHHHMIPKESMNVDQSRYETQEGTIVENKLTPFLELTSGEIPMWVKQKYLLSPIDTSKYSDDFYKLGPDDFGKLSGEQVKPDLIKSKLPSSVLHKIWNLADITKDGYLDLFEYSLARHFIEMKTEGFDLPTKVPKDIINSHEY", "soluble on expression in E. coli": "soluble"}
{"sequence": "MGSDKIHHHHHHMTARQDLVDLIAAIDAGSGPARNPYWRDLAVDDSVARKAAVLMLFGALDNVPAASGKPLAPADLDVLLLERAHTLDDHPGQVAFPGGGIDPGETPIEAALREAEEETGLDSAGVEVLGAMPQLALPRGNFLVTPVLAWWHSPSPVRVVDYGESAQVFRVPVRDLLDPDNRVMATVSRAGQSFLSPAFVVNKVVVWGFTGMILNELFDHLGWSVPWDRSRLHQIDV", "soluble on expression in E. coli": "not soluble"}
{"sequence": "MLRLARKGLQTAVVRSYAKDVKFGAEGRQAMLVGVNLLADAVSVTMGPKGRNVIIEQSWGSPKITKDGVTVAKSIDLKDKYQNLGAKLIQDVANKANEEAGDGTTCATVLARAIAKEGFESIRQGGNAVEIRRGVMNAVEVVVAELKKISKKVTTPEEIAQVATISANGDTVVGNLISDAMKKVGTTGVITVKDGKTLNDELELIEGMKFDRGYISPYFITSAKGAKVEYEKALVLLSEKKISQVQDIVPALELANKLRRPLVIIAEDVDGEALTTLVLNRLKVGLQVVAIKAPGFGDNRKNTLKDMGIATGATIFGDDSNLIKIEDITANDLGEVDEVTITKDDTLLLRGRGDQTEIEKRIEHITDEIEQSTSDYEKEKLNERLAKLSKGVAVLKIGGGSEVEVGEKKDRVTDALCATRAAVEEGIVPGGGVALLRSLTALKNYKAANEDQQIGVNIVKKALTQPIATIVKNAGLEPSSIIDEVTGNSNTSYGYDALNGKFVDMFEAGIIDPTKVVRTALQDASGVASLLATTECVVTEIPKEEAVGGPAGGMGGMGGMGGMGGMGF", "soluble on expression in E. coli": "not soluble"}
{"sequence": "MGNCWFKGNPYFNRVSSNATKSESPKMQSPSERKEKDDSMLPSNAKEVEELRRESARNPLIAFTFEELKRITKNFRQDSLLGGGGFGRVYKGYITSDLREGLTIEEPLRVAVKVHDGDNSFQGHREWLAEVIFLGQLSHPNLVKLIGYCCEDDHRVLVYEFMPLGSVESHLFSRVMVPLPWFTRMKIALGAAKGLAFLHEAEKPVIYRDFKTSNILLDEEYNAKLSDFGLAKDGPVGDKSHVSTRIMGTYGYAAPEYIMTGHLTAMSDVYSYGVVLLELLTGRKSLDKSRPVREQTLADWAFPMLIQKKKVLGIVDPRLAEDYPVKAVQKTAMLAYHCLNRNPKARPLMRDIVATLEPLQQMEEDPSISLVSGTEV", "soluble on expression in E. coli": "soluble"}
{"sequence": "MAGFFNKLTGFFTISRQHNPPFEAASKSRRMGGFDPAKKHINKAIEECGDTIVARSRWLYDNESLYGSATEEWVSAAVSDGIKPYPRIEGFQEEKKKLLDLWWQWVDEADYDEDANFYGLQATIAREVFLTGECFVRLHYVDLYGRSGVPFQLQIYPTEMLDLTYNGPAETEGNYIRMGIEFNASGKRVAYHFWEHHPYDDCPANRAFKSQDRIRVPAEMVLHIKERRIAGQLRGSPKITRSMTKIFQLESYDDAELDRKRTAALFAVFITGKESHDAALEENREQTRLPKKPEEAADVDKIYPGSVNMVDGEKQITFSTPVEVGGSYEAFQFRNILKICSALNMPYAVVTGDVTRGNFSNVRTSIIQFRRHVKQWREHIIAFQFNRIVWERFVEMAVLSGRVHLPGWEENPLPWLQCESFAPPLEMIDPNKDISAEKEEIRAGLKTRRMALAERGFDIDSIHAELEEEHTDARARGLSFDTDMAASSGDNQIIDTTDSDPSETYESNQGSEAHKNGE", "soluble on expression in E. coli": "not soluble"}
